Data taken from publication PMC9332396.

Target: His6-NbSWP12 recombinant protein (spore wall protein NbSWP12 of Nosema bombycis) (Nosema bombycis)
Experiment: non-reducing SDS-PAGE with Western blot; purified His6-NbSWP12 in non-reducing loading buffer (no SDS, no β-mercaptoethanol, not heated), 12% gel, blot with NbSWP12 antiserum

His6-NbSWP12 recombinant protein (spore wall protein NbSWP12 of Nosema bombycis) (natural protein)
stoichiometry N: 2
